In patent US20230355734A1 (VIRGINIA COMMONWEALTH UNIVERSITY, published 2023):

target: T1, human Factor H (human, UniProt P08603 19-1231); test: ELISA, immobilized recombinant protein, FH in solution
T1 construct: Purified human FH bought from CompTech; added in solution at 10 ug/mL in the ELISA and 40 ug/mL in the cleavage assay; also called FH; human FH
T1 sequence (P08603 19-1231 limits assumed): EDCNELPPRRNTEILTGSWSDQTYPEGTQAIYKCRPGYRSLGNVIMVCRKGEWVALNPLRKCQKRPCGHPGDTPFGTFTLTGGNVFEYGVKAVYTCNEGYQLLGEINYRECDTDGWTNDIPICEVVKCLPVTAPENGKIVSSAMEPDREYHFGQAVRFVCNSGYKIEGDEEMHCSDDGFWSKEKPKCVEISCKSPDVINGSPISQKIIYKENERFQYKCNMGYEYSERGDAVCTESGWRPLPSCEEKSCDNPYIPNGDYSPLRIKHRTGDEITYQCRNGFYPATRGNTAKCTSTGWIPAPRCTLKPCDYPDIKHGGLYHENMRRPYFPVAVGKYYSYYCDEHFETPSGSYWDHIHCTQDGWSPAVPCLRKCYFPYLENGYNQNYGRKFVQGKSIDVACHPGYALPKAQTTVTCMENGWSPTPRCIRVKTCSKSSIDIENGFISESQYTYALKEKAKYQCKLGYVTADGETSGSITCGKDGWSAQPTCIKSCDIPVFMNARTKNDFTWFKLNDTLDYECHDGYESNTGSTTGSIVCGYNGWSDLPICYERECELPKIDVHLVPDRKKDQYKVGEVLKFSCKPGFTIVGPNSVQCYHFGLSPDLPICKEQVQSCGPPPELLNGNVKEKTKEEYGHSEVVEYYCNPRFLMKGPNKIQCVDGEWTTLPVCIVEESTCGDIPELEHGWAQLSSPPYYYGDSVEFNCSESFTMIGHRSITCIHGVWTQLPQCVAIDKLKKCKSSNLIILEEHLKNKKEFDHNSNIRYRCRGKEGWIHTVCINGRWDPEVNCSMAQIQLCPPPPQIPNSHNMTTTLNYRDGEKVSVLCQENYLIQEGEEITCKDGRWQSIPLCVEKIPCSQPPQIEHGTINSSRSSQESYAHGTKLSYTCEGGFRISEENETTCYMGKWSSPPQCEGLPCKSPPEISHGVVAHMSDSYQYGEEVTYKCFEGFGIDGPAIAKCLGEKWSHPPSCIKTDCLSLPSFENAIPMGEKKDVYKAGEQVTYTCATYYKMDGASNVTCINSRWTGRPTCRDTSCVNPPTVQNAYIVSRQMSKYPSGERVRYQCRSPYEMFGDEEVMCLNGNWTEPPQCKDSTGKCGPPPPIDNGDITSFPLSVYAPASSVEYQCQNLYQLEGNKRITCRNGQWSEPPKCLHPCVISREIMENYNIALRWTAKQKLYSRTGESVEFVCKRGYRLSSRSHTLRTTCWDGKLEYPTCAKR

Binder	binding result
FhbB3 of strain 35404, E45A or D58A site-directed mutant (receptor, also called FhbB335404 mutant; not shown: N-terminal hexa-histidine tag from vector pET46-Ek LIC) FKMNTAQNAHYEAFISGLERGAKDNPMLAQVVKAGLDLANDGAAALNYKIVDKKPGTDIAKGTKAAELRKRFIPKKIKT	no binding (tested: 10 µg mL^-1 human FH)
FhbB2 of strain SP50, E45A or D58A site-directed mutant (receptor, also called FhbB2SP50 mutant; not shown: N-terminal hexa-histidine tag from vector pET46-Ek LIC) FKMNTAQKAHYEAFIKVLEKAAERNPIDAQVVVEALGAVNIDALAKNLNYQVIDKKPGTDIATGTKAAELRKRFVPKKIKA	no binding (tested: 10 µg mL^-1 human FH)
FhbB3 of strain 33521, E45A or D58A site-directed mutant (receptor, also called FhbB333521 mutant; not shown: N-terminal hexa-histidine tag from vector pET46-Ek LIC) FKMNTAQKAHYEAFISGLENAVKDNPMTAQNVKEGLDLANVGAAALNFKIVDKKAGTEIAKGTKAAELRKRFVPKKKA	no binding (tested: 10 µg mL^-1 human FH)
FhbB-ch4 tetravalent chimeric (FhbB135405-FhbB2SP50-FhbB333521-FhbB335404, mutated) (other, purified on nickel; also called Fhb-ch4; not shown: N-terminal hexa-histidine tag from vector pET46-Ek LIC) TFKMNTAQKAHYEKFINALENALKTRHIPAGAVIDMLAEINTEALALDYQIVDKKPGTSIAQGTKAAALRKRFIPKKIKAFKMNTAQKAHYEAFIKVLEKAAERNPIDAQVVVEALGAVNIDALAKNLNYQVIDKKPGTDIATGTKAAELRKRFVPKKIKAFKMNTAQKAHYEAFISGLENAVKDNPMTAQNVKEGLDLANVGAAALNFKIVDKKAGTEIAKGTKAAELRKRFVPKKKAFKMNTAQNAHYEAFISGLERGAKDNPMLAQVVKAGLDLANDGAAALNYKIVDKKPGTDIAKGTKAAELRKRFIPKKIK	no binding (tested: 10 µg mL^-1 human FH)
FhbB1 of strain 35405, E45A site-directed mutant (receptor, also called FhbB135405 mutant; not shown: N-terminal hexa-histidine tag from vector pET46-Ek LIC) TFKMNTAQKAHYEKFINALENALKTRHIPAGAVIDMLAEINTEALALDYQIVDKKPGTSIAQGTKAAALRKRFIPKKIKA	no binding (tested: 10 µg mL^-1 human FH)

target: T1, human Factor H; test: ELISA, immobilized recombinant protein, human FH 10 ug/mL

Binder	binding result
FhbB3SP64E45A/D58A (receptor, also called FhbBSP64E45A/D58A; FhbB3SP64 mutant; not shown: N-terminal hexa-histidine tag from vector pET46-Ek LIC) FKMNTAQKAHYEAFIADLERAAKDNPMPAHIVKAGLDAANAIAATLNFKIVDKKAGTEIAKGTKAAELRKRFVPKKK	binds
FhbB-ch5 pentavalent chimeric (FhbB135405-FhbB2SP50-FhbB333521-FhbB335404-FhbB3SP64, mutated) (other, purified on nickel; not shown: N-terminal hexa-histidine tag from vector pET46-Ek LIC) TFKMNTAQKAHYEKFINALENALKTRHIPAGAVIDMLAEINTEALALDYQIVDKKPGTSIAQGTKAAALRKRFIPKKIKAFKMNTAQKAHYEAFIKVLEKAAERNPIDAQVVVEALGAVNIDALAKNLNYQVIDKKPGTDIATGTKAAELRKRFVPKKIKAFKMNTAQKAHYEAFISGLENAVKDNPMTAQNVKEGLDLANVGAAALNFKIVDKKAGTEIAKGTKAAELRKRFVPKKKAFKMNTAQNAHYEAFISGLERGAKDNPMLAQVVKAGLDLANDGAAALNYKIVDKKPGTDIAKGTKAAELRKRFIPKKIKTFKMNTAQKAHYEAFIADLERAAKDNPMPAHIVKAGLDAANAIAATLNFKIVDKKAGTEIAKGTKAAELRKRFVPKKK	binds
